Paper PMC9404881, “Simultaneous Maturation of Single Chain Antibody Stability and Affinity by CHO Cell Display” (Bioengineering, 2022)
Numbering of substitutions follows the chain as printed. Numbers in names are those of the source.

B1: Anti-human TNFα wild-type scFv (soluble, His-tagged) (scFv, V domains shown)
VH: QLVQSGPELKKPGETVKISCKASGYTFTNYGMNWVKQAPGKGLKWMGWINTYTGEPTYADDFKGRFAFSLETSASTAYLQINNLKNEDSATYFCAGRRSYDYDVAMDYWGQGTSVTIS
VL: DIVLTQSPASLAVSLGQRATISCRASESVDSYGNYFMHWYQQKPGQPPKLLIYRASNLESGIPARFSGSGSGTDFTLTINPVEADDVATYYCQQSNEEPLTFGSGTKLEIK
notes: scFv from Jie Tang (Institute of Biophysics, CAS); Theoretical mass with His tag about 25 kDa; also called αTNFα; anti-TNFα WT scFv; source: 293F cells, transfected, supernatant purified on a nickel column; not shown: His6, C-terminal, kept
B2: Anti-TNFα scFv mutant A115V displayed on CHO cells (scFv, V domains shown)
VH: B1 VH with A105V
VL: B1 VL
notes: Most enriched clone of the maturation under normal conditions (37 °C culture, 4 °C labelling); Display construct as m4; not shown: transmembrane peptide (TM), C-terminal, kept
B3: Anti-TNFα scFv mutant G94R (soluble, His-tagged) (scFv, V domains shown)
VH: B1 VH with G96R
VL: B1 VL
notes: position 94 of the heavy chain in the Chothia scheme, right before heavy chain CDR3; Found by AID mutagenesis and sorting on thermo-resistant CHO cells; The base change is printed as G316A; also called G316A (base); G94R scFv; source: 293F cells, transfected, supernatant purified on a nickel column; not shown: His6, C-terminal, kept

How the values were obtained:
His-TNFα-GFP [1] = molecular target: T1, His-TNFα-GFP (Homo sapiens, UniProt P01375, biotin (conjugated for the Octet measurement only)); assay: BLI; ForteBio Octet; biotinylated TNFα-GFP (20 μg/mL) fixed on streptavidin (SA) biosensors; scFv in solution, 250-8000 nM for wild type and 31.25-1000 nM for mutant; association 120 s, dissociation 180 s; KD = Koff/Kon; settings: both partners purified
T1 construct: TNFα, antigen of the anti-human TNFα scFv; The names His-TNFα-GFP and GFP-TNFα are both printed, so the side on which GFP stands is not certain; Probably the soluble form of TNFα (surmise); also called GFP-TNFα; source: E. coli containing the PET28a (+)-TNFα-GFP plasmid, purified with a Ni column

His-TNFα-GFP [2] = molecular target: T1, His-TNFα-GFP; assay: flow cytometry on cells; scFv displayed on CHO cells, labelled with TNFα-GFP and PE-conjugated anti-HA antibody for 1/2 h at 4 °C; with or without 5% BSA (antigen binding much reduced without BSA); settings: one partner purified

T1 sequence (P01375 whole entry): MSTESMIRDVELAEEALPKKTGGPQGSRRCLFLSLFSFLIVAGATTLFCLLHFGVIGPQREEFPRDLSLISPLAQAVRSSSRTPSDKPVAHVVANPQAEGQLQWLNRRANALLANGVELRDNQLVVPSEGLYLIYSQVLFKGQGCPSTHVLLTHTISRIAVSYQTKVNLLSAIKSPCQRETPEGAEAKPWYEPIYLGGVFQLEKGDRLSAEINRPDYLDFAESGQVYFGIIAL

Row | Binder | Kd (His-TNFα-GFP [1]) | koff (His-TNFα-GFP [1]) | kon (His-TNFα-GFP [1]) | binding result (His-TNFα-GFP [2])
1 | B1 | 1550 nM | 0.00873 s⁻¹ | 5620 M⁻¹ s⁻¹ | –
2 | B2 | – | – | – | binds
3 | B3 | 9.69 nM | 0.00159 s⁻¹ | 164000 M⁻¹ s⁻¹ | –
